The text below walks through data of paper PMC3664699.

Where “and” joins values, the source holds several entries; their conditions need not be identical. Identical values can stand only once. Like-named read-outs stand apart in the source and are kept apart here.

As usually defined, the Kd is the free concentration of one partner at which half of the binding sites on the other are occupied at equilibrium, for simple one-to-one binding. A low value points to a tighter complex. The term stoichiometry N denotes a count of units in the complex or per binding partner.

The target in test [1] is EndoH-DyLight (GluA2 ATD, EndoH-digested, DyLight-labeled). Description: fluorescence polarisation.
The target in the next test is GluA2 ATD, GnTI−. Nature of the test: AUC.
The target of test [2] is EndoH-digested, FAM-labeled GluA2S. Nature of the test: AUC.
The target is the same in test [3]. Nature of the test: AUC. The source holds these as a separate data set.
For test [4] the target is unchanged. Description: AUC. The source holds these as a separate data set.
The next test deals with GluA2S-FAM. Description: AUC.
The target of test [5] is EndoH-digested GluA2S. Nature of the test: AUC.
Test [6] addresses EndoH-digested GluA2S. Description: AUC. This is another data set of the same source.
Test [7] has as its target EndoH-digested GluA2S. Description: AUC. The source holds these as a separate data set.
Test [8] deals with EndoH-digested GluA2S. Nature of the test: AUC. The source holds these as a separate data set.
For test [9], the target named is EndoH-digested GluA2S. Nature of the test: AUC. The source holds these as a separate data set.
Test [10] concerns the target GluA3 (AMPA receptor amino-terminal domain). Nature of the test: AUC.
Another test addresses GluA2L. Description: AUC.
For test [11], the target named is GluA2S, GluA2 ATD with complex glycosylation (293T). Nature of the test: AUC.
For test [12] the target is unchanged. Description: AUC. This is another data set of the same source.

Chain of EndoH-DyLight (GluA2 ATD, EndoH-digested, DyLight-labeled) (P19491 22-883): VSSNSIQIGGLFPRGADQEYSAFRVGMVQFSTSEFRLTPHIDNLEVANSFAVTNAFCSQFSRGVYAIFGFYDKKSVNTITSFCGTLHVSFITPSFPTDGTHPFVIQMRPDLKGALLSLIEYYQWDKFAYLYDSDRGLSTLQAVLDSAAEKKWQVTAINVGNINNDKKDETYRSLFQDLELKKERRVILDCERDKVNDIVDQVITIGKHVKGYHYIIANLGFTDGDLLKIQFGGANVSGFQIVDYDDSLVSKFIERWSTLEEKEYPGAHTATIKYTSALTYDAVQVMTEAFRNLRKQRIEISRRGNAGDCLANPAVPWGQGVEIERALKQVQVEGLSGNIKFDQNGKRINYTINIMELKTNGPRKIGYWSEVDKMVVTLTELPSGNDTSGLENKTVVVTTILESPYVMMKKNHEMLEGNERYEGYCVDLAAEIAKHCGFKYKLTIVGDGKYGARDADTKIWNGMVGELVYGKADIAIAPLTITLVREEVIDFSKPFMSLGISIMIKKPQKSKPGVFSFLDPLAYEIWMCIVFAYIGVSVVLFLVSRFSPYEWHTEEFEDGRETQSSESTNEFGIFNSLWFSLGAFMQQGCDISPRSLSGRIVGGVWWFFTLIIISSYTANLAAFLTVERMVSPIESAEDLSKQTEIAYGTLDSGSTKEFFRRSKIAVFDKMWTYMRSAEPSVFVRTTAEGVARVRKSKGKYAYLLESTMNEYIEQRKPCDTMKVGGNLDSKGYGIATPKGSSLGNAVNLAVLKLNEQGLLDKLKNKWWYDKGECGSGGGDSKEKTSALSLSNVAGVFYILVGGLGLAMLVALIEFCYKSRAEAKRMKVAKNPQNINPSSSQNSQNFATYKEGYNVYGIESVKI
Chain of EndoH-digested GluA2S (P19491 22-883): as above
Chain of GluA2S, GluA2 ATD with complex glycosylation (293T) (P19491 22-883, one chain of several): as the sequence (P19491 22-883) above
Chain of EndoH-digested, FAM-labeled GluA2S (P19491 22-883): as above
Chain of GluA3 (AMPA receptor amino-terminal domain) (P19492 23-888): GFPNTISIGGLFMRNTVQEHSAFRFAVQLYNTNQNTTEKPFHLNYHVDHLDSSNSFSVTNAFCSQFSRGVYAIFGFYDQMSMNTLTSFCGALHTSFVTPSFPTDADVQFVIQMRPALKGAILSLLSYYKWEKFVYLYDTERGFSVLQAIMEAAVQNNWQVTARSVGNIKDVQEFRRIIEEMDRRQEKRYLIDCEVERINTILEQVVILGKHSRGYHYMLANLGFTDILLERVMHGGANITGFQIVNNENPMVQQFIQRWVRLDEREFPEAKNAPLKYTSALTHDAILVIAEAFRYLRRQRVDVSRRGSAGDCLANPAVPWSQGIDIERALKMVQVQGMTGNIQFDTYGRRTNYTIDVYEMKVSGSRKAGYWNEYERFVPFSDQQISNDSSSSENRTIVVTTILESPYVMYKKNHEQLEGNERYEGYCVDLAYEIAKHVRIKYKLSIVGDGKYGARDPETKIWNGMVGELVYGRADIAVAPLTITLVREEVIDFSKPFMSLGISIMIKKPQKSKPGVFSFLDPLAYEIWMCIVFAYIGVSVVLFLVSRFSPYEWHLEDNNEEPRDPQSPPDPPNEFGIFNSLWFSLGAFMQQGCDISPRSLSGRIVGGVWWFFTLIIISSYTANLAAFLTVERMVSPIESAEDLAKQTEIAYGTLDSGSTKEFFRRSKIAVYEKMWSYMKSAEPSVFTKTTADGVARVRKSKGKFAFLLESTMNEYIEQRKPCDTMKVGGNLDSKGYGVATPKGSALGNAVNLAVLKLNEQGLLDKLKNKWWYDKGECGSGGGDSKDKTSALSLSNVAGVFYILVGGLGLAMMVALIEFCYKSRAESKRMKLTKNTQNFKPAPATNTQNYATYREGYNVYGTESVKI
Chain of GluA2S-FAM (P19491 22-883): as the sequence (P19491 22-883) above
Chain of GluA2L (P19491 22-883): as above
Chain of GluA2 ATD, GnTI− (P19491 22-883): as above

Regarding “EndoH-DyLight (GluA2 ATD, EndoH-digested, DyLight-labeled) (domain or fragment)”, the Kd in test [1] was 10.8 nM and 11.3 nM and 8.43 nM.

GluA2 ATD, GnTI− (domain or fragment): the Kd with GluA2 ATD, GnTI− came to 11 nM.

With “EndoH-digested, FAM-labeled GluA2S (domain or fragment)”, the Kd in test [2] was found to be 13 nM; in test [3], 10 nM; in test [4], 2.5 nM.

Consider GluA2S-FAM (domain or fragment), for which the Kd with GluA2S-FAM is 14.9 nM.

Turning to “EndoH-digested GluA2S (domain or fragment)”, the Kd was 12 nM with EndoH-digested GluA2S [5]; 12 nM and 8.3 nM and 10 nM in the test with EndoH-digested GluA2S [6]; 30 nM with EndoH-digested GluA2S [7]; 160 nM and 284 nM with EndoH-digested GluA2S [8]; 17 nM in the test with EndoH-digested GluA2S [9]. Also, the stoichiometry N with EndoH-digested GluA2S [8] is 2.

As to “GluA3 (AMPA receptor amino-terminal domain) (domain or fragment)”, in [10], the Kd was 5600 nM and the stoichiometry N is 2.

Take GluA2L (domain or fragment): the Kd with GluA2L turned out to be 5.5 nM.

For the substance “GluA2S, GluA2 ATD with complex glycosylation (293T) (domain or fragment)”, in test [11], the Kd stood at 8.3 nM. In [12], this substance gave a Kd of 6 nM and a stoichiometry N of 2.
